From patent US11708423B2, “Chimeric engulfment receptor molecules and methods of use” (CERO THERAPEUTICS, INC., priority 2017, dated 2023)

B1: CER123: Tim4 binding and transmembrane domains, TLR2 primary and TRAF6 secondary signaling domains; SEQ ID NO:150 (protein)
chain: MSKGLLLLWLVTELWWLYLTPAASEDTIIGFLGQPVTLPCHYLSWSQSRNSMCWGKGSCPNSKCNAELLRTDGTRIISRKSTKYTLLGKVQFGEVSLTISNTNRGDSGVYCCRIEVPGWFNDVKKNVRLELRRATTTKKPTTTTRPTTTPYVTTTTPELLPTTVMTTSVLPTTTPPQTLATTAFSTAVTTCPSTTPGSFSQETTKGSAFTTESETLPASNHSQRSMMTISTDIAVLRPTGSNPGILPSTSQLTTQKTTLTTSESLQKTTKSHQINSRQTILIIACCVGFVLMVLLFLAFLHRFHGLWYMKMMWAWLQAKRKPRKAPSRNICYDAFVSYSERDAYWVENLMVQELENFNPPFKLCLHKRDFIPGKWIIDNIIDSIEKSHKTVFVLSENFVKSEWCKYELDFSHFRLFDENNDAAILILLEPIEKKAIPQRFCKLRKIMNTKTYLEWPMDEAQREGFWVNLRAAIKSMSLLNCENSCGSSQSESDCCVAMASSCSAVTKDDSVGGTASTGNLSSSFMEEIQGYDVEFDPPLESKYECPICLMALREAVQTPCGHRFCKACIIKSIRDAGHKCPVDNEILLENQLFPDNFAKREILSLMVKCPNEGCLHKMELRHLEDHQAHCEFALMDCPQCQRPFQKFHINIHILKDCPRRQVSCDNCAASMAFEDKEIHDQNCPLANVICEYCNTILIREQMPNHYDLDCPTAPIPCTFSTFGCHEKMQRNHLARHLQENTQSHMRMLA
modifications: CER123 protein
B2: CER126: Tim4 binding and transmembrane domains, TLR2 primary and TRAF2 secondary signaling domains; SEQ ID NO:174 (protein)
chain: MSKGLLLLWLVTELWWLYLTPAASEDTIIGFLGQPVTLPCHYLSWSQSRNSMCWGKGSCPNSKCNAELLRTDGTRIISRKSTKYTLLGKVQFGEVSLTISNTNRGDSGVYCCRIEVPGWFNDVKKNVRLELRRATTTKKPTTTTRPTTTPYVTTTTPELLPTTVMTTSVLPTTTPPQTLATTAFSTAVTTCPSTTPGSFSQETTKGSAFTTESETLPASNHSQRSMMTISTDIAVLRPTGSNPGILPSTSQLTTQKTTLTTSESLQKTTKSHQINSRQTILIIACCVGFVLMVLLFLAFLHRFHGLWYMKMMWAWLQAKRKPRKAPSRNICYDAFVSYSERDAYWVENLMVQELENFNPPFKLCLHKRDFIPGKWIIDNIIDSIEKSHKTVFVLSENFVKSEWCKYELDFSHFRLFDENNDAAILILLEPIEKKAIPQRFCKLRKIMNTKTYLEWPMDEAQREGFWVNLRAAIKSMAAASVTPPGSLELLQPGFSKTLLGTKLEAKYLCSACRNVLRRPFQAQCGHRYCSFCLASILSSGPQNCAACVHEGIYEEGISILESSSAFPDNAARREVESLPAVCPSDGCTWKGTLKEYESCHEGRCPLMLTECPACKGLVRLGEKERHLEHECPERSLSCRHCRAPCCGADVKAHHEVCPKFPLTCDGCGKKKIPREKFQDHVKTCGKCRVPCRFHAIGCLETVEGEKQQEHEVQWLREHLAMLLSSVLEAKPLLGDQSHAGSELLQRCESLEKKTATFENIVCVLNREVERVAMTAEAC
modifications: CER126 protein

What was measured:
[1] = system: H1975 lung adenocarcinoma cells; experiment: MTT viability of H1975 cells co-cultured with CER T cells and Osimeritinib; format: cell-based; conditions: for growth/viability of H1975 cells (MTT): Osimeritinib 250, 500, 1000 nM, CD4+ T cells, E:T 1:1, 2:1, 5:1, 48 hours
Source text: H1975 lung adenocarcinoma cells harboring an EGFR mutation were co-cultured with CER123- or CER126-modified or Mock-transduced (vector only) CD4+ T cells with increasing concentrations of Osimeritinib. CER123 has a polypeptide sequence as set forth in SEQ ID NO:150 and comprises a Tim4 binding domain, Tim4 transmembrane domain, and an engulfment signaling domain comprising a primary engulfment signaling domain comprising a TLR2 signaling domain and a secondary engulfment signaling domain comprising a TRAF6 signaling domain. CER126 has a polypeptide sequence as set forth in SEQ ID NO:174 and comprises a Tim4 binding domain, Tim4 transmembrane domain, and an engulfment signaling domain comprising a primary engulfment signaling domain comprising a TLR2 signaling domain and a secondary engulfment signaling domain comprising a TRAF2 signaling domain. CD4 T cells were transduced with a lentiviral vector comprising CER123 or CER126 nucleic acid and truncated EGFR (transduction marker) nucleic acid. Assays were performed using CER modified T cells purified by FACS using an EGFR specific antibody 7 days after activation using CD3 & CD28 microbeads. CER modified T cells and H1975 cells were co-cultured at effector:target cell ratio (E:T) of 1:1, 2:1, or 5:1. After 48 hours of co-culture in the presence of Osimeritinib (0, 250 nM, 500 nM, or 1000 nM), T cells were washed away, and the number of viable H1975 cells were quantified using a calorimetric MTT assay. Cell viability experiments were performed in triplicate and presented as % of control (FIG. 45A).

H1975 NSCLC cells = experiment: LDH-based cytotoxicity, H1975 cells, 18 hours co-culture; format: cell-based; conditions: Osimeritinib 0, 500, 1000 nM, E:T 2:1 or 5:1
Protocol: H1975 NSCLC cells were co-cultured with CER123- or CER126-expressing CD4+ T cells with increasing concentrations of Osimeritnib (0, 500 nM, or 1000 nM). Mock-transduced (vector only) T cells were used as control. Assays were performed using CER modified T cells purified by FACS using an EGFR specific antibody 7 days after activation using CD3 & CD28 microbeads. CER modified T cells and H1975 cells were co-cultured at effector:target cell ratios of 2:1 or 5:1. After 18 hours of co-culture, bulk supernatants were evaluated using LDH-based cytotoxicity assay.

[2] = system: HCC159 lung adenocarcinoma cells; experiment: LDH-based cytotoxicity, HCC159 cells; format: cell-based; conditions: Osimeritinib 0, 1, 5 nM; E:T 2:1 or 5:1; 18 hours
Protocol: HCC159 lung adenocarcinoma cells were co-cultured with CER123- or CER126-expressing CD4+ T cells with increasing concentrations of Osimeritnib (0, 1 nM, 5 nM). After 18 hours of co-culture, bulk supernatants were evaluated using a LDH-based cytotoxicity assay. T cells assays were performed using purified, EGFR^+ (transduction marker), CER modified T cells 7 days after activation using CD3 & CD28 microbeads at effector:target cell ratios of 2:1 or 5:1. Control “Mock” T cells were transduced with vector alone. […] Bulk supernatants were also analyzed after 18 hours of co-culture for Interferon Gamma (IFNγ) secretion (FIG. 50). Control “Mock” T cells were transduced with vector alone.

ALK+A549 cells = experiment: LDH cytotoxicity assay, A549 ALK+ cells, 18 hours co-culture; format: cell-based; conditions: for cell killing of A549 ALK+ cells (LDH): Crizotinib or Alectinib 0, 2500, 3700 nM, E:T 2:1 or 5:1, 18 hours
Protocol: An ELM4-ALK translocation was introduced into A549 cells. […] Assays were performed with purified tEGFR^+ (transduction marker), CER-expressing T cells 7 days after activation using CD3 & CD28 microbeads at effector: target cell ratios of 2:1 or 5:1. Mock T cells were transduced with vector alone and used as control. After 18 hours of co-culture, bulk supernatants were evaluated using a LDH cytoxicity assay indicating cell killing (FIGS. 65A-B).

HPV E7 oncoproteins = experiment: Antigen cross-presentation, E6/E7 TCR NFAT-luciferase Jurkat reporter; format: cell-based, human; conditions: CD4+ and CD8+ T cells after phagocytosis of SCC152 HPV+ cells, compared to mock
Source text: CD4+ and CD8+CER-expressing T cell lines were established from human PBMCs. Purified T cells were transduced with lentivirus encoding CER123 (SEQ ID NO:150) and truncated EGFR (transduction marker), after activation with CD3 & CD28 microbeads, and then expanded in medium containing IL-7, IL-15, and IL-2 for 5 days. The percentage of tEGFR+ T cells ranged between 40-60%.
A Jurkat cell line with a stable integration of an NFAT-inducible Luciferase reporter construct was utilized to study T cell responses. Human E6- and E7-specific engineered TCRs were transduced into Jurkat NFAT reporter cell lines to characterize NFAT activation upon co-culture with engineered CERs.
For assessing MHC-I cross-presentation, SCC152 HPV^+ cells were co-cultured overnight with CER123-expressing CD4+ and CD8+ T cells or mock-transduced (vector only) T cells in the presence of T cells expressing an E7-specific TCR. […] NFAT activation was assessed at serial time points (0, 6, 12, 24, and 72 hrs) by measuring luciferase activity in cell culture supernatants. […] Induction of E711-19 —specific Jurkat T cells were quantified by luminescence of NFAT signaling at indicated time points and compared to Mock (vector-alone) transduced T cells (FIG. 87).

Molecule	growth/viability of H1975 cells (MTT) [1]	cell killing of H1975 cells (LDH) (H1975 NSCLC cells)	cell killing of HCC159 cells (LDH) [2]	cell killing of A549 ALK+ cells (LDH) (ALK+A549 cells)	cross-presentation of HPV E7 oncoproteins (NFAT activation) (HPV E7 oncoproteins)	bright field images of H1975 co-culture ([1]; Osimeritinib 500 nM, vs control T cells (vector alone))	micrograph images of A549 co-culture (ALK+A549 cells; Crizotinib 3700 nM)
B1	synergistically suppressed	inducible cell killing responses	inducible cell killing responses	dose-dependent inducible cytokine secretion and cell killing responses	enhanced cross-presentation efficiency of HPV E7 oncoproteins		
B2	synergistically suppressed	inducible cell killing responses	inducible cell killing responses	dose-dependent inducible cytokine secretion and cell killing responses		loss of H1975 cells	near complete loss of Crizotinib-treated A549 cells
